Assay results as given in paper doi:10.1101/2021.10.01.462756 (bioRxiv, 2021).

T1: Ddc1 (S. cerevisiae, UniProt Q08949 1-612)
T1 sequence: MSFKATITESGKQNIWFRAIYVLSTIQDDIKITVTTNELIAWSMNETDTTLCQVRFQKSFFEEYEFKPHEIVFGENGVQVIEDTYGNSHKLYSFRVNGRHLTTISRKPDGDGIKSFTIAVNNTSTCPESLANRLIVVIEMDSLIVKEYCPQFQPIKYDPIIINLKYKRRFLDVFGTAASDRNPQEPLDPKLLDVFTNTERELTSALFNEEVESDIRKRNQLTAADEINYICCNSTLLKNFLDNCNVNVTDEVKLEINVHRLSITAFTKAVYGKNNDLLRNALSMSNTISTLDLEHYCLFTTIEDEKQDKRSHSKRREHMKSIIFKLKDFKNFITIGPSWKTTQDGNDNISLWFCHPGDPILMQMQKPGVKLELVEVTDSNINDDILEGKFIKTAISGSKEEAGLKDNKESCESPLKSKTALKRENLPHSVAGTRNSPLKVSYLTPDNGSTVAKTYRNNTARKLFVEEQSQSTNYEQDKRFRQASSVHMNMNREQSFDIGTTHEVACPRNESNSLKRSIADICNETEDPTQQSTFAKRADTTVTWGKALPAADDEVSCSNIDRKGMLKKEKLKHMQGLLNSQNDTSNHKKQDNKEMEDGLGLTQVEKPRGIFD

T2: His-PK-Mec3 (S. cerevisiae, UniProt Q02574 1-474)
T2 sequence: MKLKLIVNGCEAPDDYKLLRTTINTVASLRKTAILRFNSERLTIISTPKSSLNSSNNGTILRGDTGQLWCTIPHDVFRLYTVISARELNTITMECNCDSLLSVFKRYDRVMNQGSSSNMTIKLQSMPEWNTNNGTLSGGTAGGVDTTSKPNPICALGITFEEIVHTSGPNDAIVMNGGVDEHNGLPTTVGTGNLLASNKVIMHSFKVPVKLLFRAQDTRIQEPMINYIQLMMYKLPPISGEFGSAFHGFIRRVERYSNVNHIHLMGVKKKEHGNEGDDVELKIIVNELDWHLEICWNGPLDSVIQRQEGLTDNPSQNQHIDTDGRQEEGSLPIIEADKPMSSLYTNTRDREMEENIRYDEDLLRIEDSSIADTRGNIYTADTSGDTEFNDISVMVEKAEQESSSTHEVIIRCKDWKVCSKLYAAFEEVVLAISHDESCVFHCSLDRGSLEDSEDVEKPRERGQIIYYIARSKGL

B1: 9-1-1 clamp (Ddc1–Mec3–Rad17) (complex)
chain 1: T1 sequence
chain 2: T2 sequence
chain 3: MRINSELANKFSASTVHLEHITTALSCLTPFGSKDDVLIFIDADGLSFVRENNHVIKIQLLLSRELFMSYSYRNETEDHMKLCVKINHILDSVSVMNRNSDDIVECTLSYDGHGSPFVLIFEDSFISERVEYSTYLIKDFDTNGLELDRERISFEAIIKGEALHSALKDLKEIGCKECYVYAKTEANDENVFALISKSQLGFSKIKLPSNRSILEKLQVFDGDSTTVIDGFAVIGFFDFTSFDKIRKSTKIASKVLFRMDVHGVLSVNILSQTDDVIITDTTRPSNNRPGSIRQLQLPKDYPGIVIEVCMLEKESIDEAAQTEIELLMETNELGNRNSFKKSTIRKRYGTDKGNETSNDNLLQLNGKKIKLPSEEENNKNRESEDEENHCKYPTKDIPIFF
B2: Rad17 (natural protein)
chain: B1 chain 3

Assays:
Test in all cases: cryo-EM structure
[1] = biological target: Rad24-RFC clamp loader (Rad24, Rfc2, Rfc3, Rfc4, Rfc5) (S. cerevisiae, UniProt P32641;P40348;P38629;P40339;P38251)
Ddc1 = biological target: T1, Ddc1
His-PK-Mec3 = biological target: T2, His-PK-Mec3

Binder	binding result [1]	binding result (Ddc1)	binding result (His-PK-Mec3)
B1	binds	–	–
B2	–	binds	binds
